From publication doi:10.1101/2020.05.04.076331
Read-outs that look alike come from different tables or passages of the source.

How the values were obtained:
[1] = target: ^FSClpX (TAMRA-labelled single-chain E. coli ^C169SClpX^ΔN pseudohexamer) (E. coli); assay: other fluorescence titration
[2] = target: ^FSClpX (TAMRA-labelled single-chain E. coli ^C169SClpX^ΔN pseudohexamer) (E. coli); assay: other fluorescence titration; remark: listed apart in the source
[3] = target: ^FSClpXP (^FSClpX with ClpP) (E. coli) (UniProt P0A6G7); assay: stopped-flow fluorescence quenching
[4] = target: ^FSClpXP (^FSClpX with ClpP) (E. coli) (UniProt P0A6G7); assay: stopped-flow fluorescence quenching; remark: listed apart in the source
[5] = target: ^FSClpXP (^FSClpX with ClpP) (E. coli) (UniProt P0A6G7); assay: other fluorescence titration
[6] = target: ^FSClpXP (^FSClpX with ClpP) (E. coli) (UniProt P0A6G7); assay: other fluorescence titration; remark: listed apart in the source

Chain of UniProt P0A6G7 (P0A6G7 whole entry, looked up): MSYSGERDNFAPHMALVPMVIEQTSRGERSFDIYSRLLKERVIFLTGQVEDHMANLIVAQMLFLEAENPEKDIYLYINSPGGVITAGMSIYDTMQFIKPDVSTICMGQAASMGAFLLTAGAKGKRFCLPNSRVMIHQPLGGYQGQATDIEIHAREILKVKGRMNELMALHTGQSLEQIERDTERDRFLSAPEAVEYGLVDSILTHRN

| Kd [1] | Kd [2] | time constant of dissociation, fast phase [3] | time constant of dissociation, slow phase [3] | time constant of dissociation, fast phase [4] | time constant of dissociation, slow phase [4] | Kd [5] | Kd [6] | Substance |
| --- | --- | --- | --- | --- | --- | --- | --- | --- |
| 0.09 µM | 0.55 µM |  |  |  |  |  |  | ^UFtitin-BQ-ssrA (titin-BQ-ssrA unfolded by carboxymethylation of otherwise-buried cysteines) (domain or fragment) |
| 0.059 µM | 0.11 µM | 2 s | 240 s | 3 s | 50 s | 0.06 µM | 0.03 to 0.1 µM | titin-BQ-ssrA (ssrA-tagged I27 domain of human titin labelled with the BHQ-10 quencher) (domain or fragment) |
